Assay results reported in patent publication US20210253725A1 (BIONTECH, published 2021).

T1: CD27 expressed on the cell surface (HT1080_CD27 cells) (human, UniProt P26842 20-260)
T1 sequence (looked up): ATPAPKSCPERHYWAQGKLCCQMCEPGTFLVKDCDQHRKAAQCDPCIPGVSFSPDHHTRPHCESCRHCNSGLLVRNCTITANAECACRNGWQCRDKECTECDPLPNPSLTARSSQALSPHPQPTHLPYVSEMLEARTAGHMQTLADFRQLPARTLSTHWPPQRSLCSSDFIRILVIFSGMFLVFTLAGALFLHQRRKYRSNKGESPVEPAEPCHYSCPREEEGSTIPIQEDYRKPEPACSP

T2: CD27 protein (His-tagged, Sino Biological Inc. 10039-H08B1) (human, UniProt P26842 20-192)
T2 construct: bought; coated onto ELISA plates; also called human CD27; recombinant protein; not shown: His tag
T2 sequence (looked up): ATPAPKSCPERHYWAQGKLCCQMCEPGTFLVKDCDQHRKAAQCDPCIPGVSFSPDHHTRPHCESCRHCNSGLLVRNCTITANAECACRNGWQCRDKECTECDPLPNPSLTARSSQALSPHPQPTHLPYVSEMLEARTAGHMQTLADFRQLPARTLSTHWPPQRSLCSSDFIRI


Legend:
[1] = molecular target: T1, CD27 expressed on the cell surface …; experiment: cell-based or functional assay
[2] = molecular target: T2, CD27 protein (His-tagged, Sino …); experiment: ELISA on coated His-tagged CD27
[3] = molecular target: T1, CD27 expressed on the cell surface …; experiment: cellular binding assay, HT1080_CD27 cells
Also: test concentration or dose not given here.

Row | Binder | IL-8, cross-linked by F(ab')2 fragment [abs. corr.] [1] | IL-8 [abs. corr.] [1] | ELISA [abs. corr.] [2] | Cellular binding assay [RFU] [3]
1 | P018.S.07.A.A05 (antibody, V domains shown, V regions on human Ig constant parts; also called AB27_114) VH: QEHLEESGGDLVKPGASLTLTCKASGFDLSINVMCWVRQAPGKGPEWIVCIDNGDGSTYYASWVNGRFTISKTSSTTVTLQMTSLTAADTATYFCARPGTFTYGGNTYPGSFVLWGPGTLVTVSS VL: AFELTQTPSSVEAAVGGTVTINCQASQSISNALAWYQQKPGQPPKLLIYTASNLASGVPSRFKGSGSGTQFTLTISDLESADAATYYCQNYYVNIIGIGFGGGTEVVVK | 1.03 abs. corr. | 0.408 abs. corr. | 3.44 abs. corr. | 379 RFU
2 | P018.S.07.A.B05 (antibody, V domains shown, V regions on human Ig constant parts; also called AB27_117) VH: QSLEESGGDLVKPGASLTLTCTASEFSFSNNYYICWVRQAPGKGLEWIACIYVHSGTTDYATWAKGRFTISRTSSTTVTLQMTSLTVADTATYFCARGRSGYYADAFDTWGPGTLVTVSS VL: ALDMTQTPSPVSAAVGGTVTINCQASQSVYNNNNLAWYQQKPGQPPKLLIYLASNLASGVPSRFKGSGSGTQFTLTISEIQSDDAATYYCQGTDSSSGWEHAFGGGTEVVVK | 1.41 abs. corr. | 0.203 abs. corr. | 3.42 abs. corr. | 295 RFU
3 | P018.S.03.A.G06 (antibody, V domains shown, V regions on human Ig constant parts; also called AB27_59) VH: QSLEESGGDLVKPGASLTLTCTASGFSFSRNNYMCWVRQAPGKGLESIACIHDGNSVGIYYTTWAKGRFTISKTSSTTVTLQMTSLTVADTATYFCARMSYTNDWDPIWGPGTLVTVSS VL: DIVMTQTPASVEAAVGGTVTIDCQASENIYSLLAWYQQKPGQPPKVLISLASNLASGVPSRFKGSGSGTQFSLTISDLESADAATYYCQGYYYSSSTSYENAFGGGTEVVVS | 1.36 abs. corr. | 0.56 abs. corr. | 3.4 abs. corr. | 302 RFU
4 | P018.S.02.A.G01 (antibody, V domains shown, V regions on human Ig constant parts; also called AB27_37) VH: QSLEESGGRLVTPGTPLTLTCTVSGIDLSSNAMNWVRQAPGKGLEWIGIIYTSGSTYYASWVKGRFTISRTSTTVDLEMTSLTTEDTATYFCARGVTIDWFDLWGQGTLVTVSS VL: AAVLTQTPSSVSAAVGGTVTINCQSSPSVYSNYLSWFQQKPGQPPKLLIYGASTLTSGVPSRFKGSGSGTQFTLTINDVQSDDAATYWCLGGYGDINDTTFGGGTEVVVK | 1.52 abs. corr. | 0.127 abs. corr. | 3.41 abs. corr. | 332 RFU
5 | P018.S.03.A.A02 (antibody, V domains shown, V regions on human Ig constant parts; also called AB27_41) VH: QSVEESGGRLVTPGTPLTLTCTVSGFSLSSYDMTWVRQAPGEGLEWIGYINTDTTTYYASWAKGRFTISRTSTTVDLEITSPTTEDTATYFCARGNDPIYIDLWGQGTLVTVSS VL: AAVLTQTPSPVSAAVGGTVSISCQSSKSVINNNWLGWYQQKPGQPPKLLISYASTLASGVPSRFSGSGSGTQFTLTISDVQSDDAATYYCAGAYSPDSENAFGGGTEVVLK | 2.2 abs. corr. | 0.651 abs. corr. | 3.44 abs. corr. | 373 RFU
6 | P018.S.03.A.B02 (antibody, V domains shown, V regions on human Ig constant parts; also called AB27_42) VH: QSLEESGGRLVTPGTPLTLTCTASGFSLSSYDMNWVRQAPGEGLEWIGTITTNSDTYYASWAKGRFTISKTSTTVDLKITSPTTEDTATYFCARGYTTFTLWGQGTLVTVSS VL: DPVLTQTPSSASEPVGGTVTINCQASQNIYSNLAWYQQKPGQPPKLLIYGASTLESGVPSRFSGSGSGTQFTLTISDLESDDAATYYCQCTDYDSNYVVDFGGGTEVVVK | 1.49 abs. corr. | 0.366 abs. corr. | 3.41 abs. corr. | 308 RFU
7 | P018.S.01.A.F02 (antibody, V domains shown, V regions on human Ig constant parts; also called AB27_19) VH: QQQLVESGGGLVRPGASLTLTCKASGFSFSSGYYVCWVRQAPGKGLEWIACIFAGSGGGAGYATWAKGRFTISKTSSTTVTLQMTSLTAADTATYFCARPLSGYAYGMDLWGPGTLVTVSL VL: DVVMTQTPASVSEPVEGTVTIKCQASQTISNYLAWYQQKPGQPPKLLIYGASTLESGVSSRFKGSGSGTQFTLTIYDLESADAATYYCQCTYDGSSDVGGAFGGGTEVVVK | 2.05 abs. corr. | 0.495 abs. corr. | 3.42 abs. corr. | 326 RFU
8 | P018.S.08.A.D01 (antibody, V domains shown, V regions on human Ig constant parts; also called AB27_137) VH: QSVEESGGRLVMPGTPLTLTCTVSGFSLSTYVMGWVRQAPGKGLECIGVIYGGGTIWYASWAKGRFTISKTSTTMDLQITSPTTEDTATYFCARDGSSSGDPGFNLWGQGTLVTVSS VL: DIVMTQTPASVSAAVGGTVTINCQASQSISNWVAWYQQKPGQPPKRLIYKASTLASGVPSRFKGSGSGTEFTLTISDLESADAATYYCQSTGSTAYGRAFGGGTEVVVR | 1.12 abs. corr. | -0.001 abs. corr. | 3.42 abs. corr. | 394 RFU
9 | P018.S.10.A.G05 (antibody, V domains shown, V regions on human Ig constant parts; also called AB27_183) VH: QSVEESGGRLVTPGTPLTLTCTVSGFSLNNAHMCWVRQAPGKGLEWIGIIGASGSTYYASWAKGRFTISKTSTTVDLKMTSLTTEDTATYFCGRTDVGYTTANLWGQGTLVTVSS VL: DVVMTQTPASVSAAVGGTVTIKCQASQTISSYLSWYQQKPGQPPKRLIYSASTLASGVSSRFKGSGSGTQFTLTISDLESADAATYYCQAYDTTSGTDLWAFGGGTEVVVK | 1.25 abs. corr. | 0.137 abs. corr. | 3.42 abs. corr. | 408 RFU
10 | P018.S.09.A.C06 (antibody, V domains shown, V regions on human Ig constant parts; also called AB27_149) VH: QSVEESGGRLVTPGTPLTLTCTVSGFSLSTYAMGWVRQAPGKGLEWIGIIYTGGSTYYASWAEGRFTISKTSTTVDLKITSPTPEDTATYFCTRDLGATYDYFDLWGQGTLVTVSS VL: AYDMTQTPASVEVAVGGTVTIKCQASQSISTALAWYQQKPGQRPKLLIYDTSDLASGVPSRFSGSGSGTEFTLTISGVESADAATYYCQQGYRHTNVDNPFGGGTGVVVK | 2.3 abs. corr. | 1.94 abs. corr. | 3.45 abs. corr. | 219 RFU
11 | P018.S.01.A.E06 (antibody, V domains shown, V regions on human Ig constant parts; also called AB27_18) VH: QSLEESGGDLVKPGASLTLTCTASGIDFSSSYYMCWVRQAPGKGLEWIGCIATGGGNTYYATWAKGRFTFSETSSTTVTLQMTSLTVADTATYFCARTYPSMWYFNLWGPGTLVTVSS VL: DVVMTQTPASVSEPVGGTVTIKCQASQSIGFNLAWYQQKPGQPPNLLIYGVSTLTSGVSSRFKGSGSGTQFTLTISDLESADAATYYCQSFYAGSSAFGGGTEVVVK | 1.4 abs. corr. | 0.448 abs. corr. | 3.45 abs. corr. | 291 RFU
12 | P018.S.04.A.E04 (antibody, V domains shown, V regions on human Ig constant parts; also called AB27_75) VH: QSVEESGGRLVTPGTPLTLTCTVSGFSLSTYAMNWIRQAPGKGLEWIGTITTGGSTFFASWAKGRFTISKTSTTVDLKITSPTTEDTATYFCARGGDTGYGFSYFDLWGQGTLVTVSS VL: AVVLTQTPASVSEPVGGTVTIKCQASENIYSSLAWYQQKPGQPPKLLIYDASTLASGVPSRFKGSGSGTEYTLTISGVQSDDAATYYCQQGYSTSNLVNPFGGGTELVVN | 1.34 abs. corr. | 0.641 abs. corr. | 3.38 abs. corr. | 283 RFU
13 | P018.S.04.A.D02 (antibody, V domains shown, V regions on human Ig constant parts; also called AB27_71) VH: QSLEESGGRLVTPGTPLTLTCTASGFSLSTYAMGWVRQAPGEGLEWIGNINTDSGDTWYARWAKGRFTISTTSSTTVDLKITSPTIEDTATYFCARNPGDDVNLWGQGTLVTVSS VL: AQVLTQTPSPVSAAVGDTVTINCQASQSVYNNNDLAWFQQKPGQPPKLLIYRTSILASGVPSRFKGSGSGTQFTLTISDLESDDAATYYCQGYYSGVIYVFGGGTEVVVK | 1.35 abs. corr. | 0.294 abs. corr. | 3.42 abs. corr. | 335 RFU
14 | P018.S.03.A.G02 (antibody, V domains shown, V regions on human Ig constant parts; also called AB27_56) VH: QSLEESGGDLVKPGASLTLTCTASGFSFSSGYDMCWVRQAPGKGLEWIACIYAGSNNNTYYASWAKGRFTISKTSSTTVTLQVASLTAADTATYFCARAAGGYADYAYVMGDYFNFWGPGTLVTVSS VL: AYDMTQTPASVEVAVGGTVTIKCQASEDIYSILAWYQQKPGQRPKGLIYSASTLDSGVPLRFSGSGSGTEFTLTISGVQSDDAATYYCQQGYSSSNVDNVFGGGTEVVVK | 1.28 abs. corr. | 0.412 abs. corr. | 3.44 abs. corr. | 275 RFU
15 | P018.S.10.A.H01 (antibody, V domains shown, V regions on human Ig constant parts; also called AB27_184) VH: QEQLEESGGDLVKPGASLTLTCTASGFSFSSDYDMCWVSQAPGKGLEWIACIIGGSSDSTWYASWAKGRFTISKTSSTTVTLQVTGLTAADTATYFCARNVGFSYYDLWGPGTLVTVSS VL: AQVLTQTPSPVSAAVGGTVTINCQASQSLYNNKNLAWYQQKPGQPPKLLIYYASTLASGVSSRFKGSGSGTQFTLTISGVQSDDAATYYCQGEFSCSSGDCFAFGGGTEVVVK | 2.29 abs. corr. | 0.412 abs. corr. | 3.42 abs. corr. | 443 RFU
